In publication PMC3617124:
Blank lines part the entries; values can stand above or below the substance they belong to.

What was measured:
Assay in all cases: fluorescence polarisation
BAKΔC = target: BAKΔC
[1] = target: BAX (recombinant, tagless, full-length) (human) (UniProt Q07812)
[2] = target: MCL-1ΔNΔC (residues 172–327) (UniProt Q07820)
BFL-1/A1ΔC = target: BFL-1/A1ΔC
BCL-XLΔC = target: BCL-XLΔC
BCL-XLΔC, sequence (Q07817 1-209, stated change not applied): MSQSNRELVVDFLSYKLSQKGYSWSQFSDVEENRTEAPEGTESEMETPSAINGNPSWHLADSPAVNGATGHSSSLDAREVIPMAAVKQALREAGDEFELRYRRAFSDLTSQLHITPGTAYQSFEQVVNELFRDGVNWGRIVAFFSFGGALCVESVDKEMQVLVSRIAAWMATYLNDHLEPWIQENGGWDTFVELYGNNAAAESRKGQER

MCL-1ΔNΔC (residues 172–327), sequence (Q07820 172-327, stated change not applied): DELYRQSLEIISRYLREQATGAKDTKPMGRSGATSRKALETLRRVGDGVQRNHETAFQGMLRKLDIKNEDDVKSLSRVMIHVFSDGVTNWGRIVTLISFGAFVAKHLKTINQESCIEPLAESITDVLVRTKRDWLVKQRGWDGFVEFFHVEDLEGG
BAX (recombinant, tagless, full-length) (human), sequence (Q07812 whole entry, the tested form may be a part): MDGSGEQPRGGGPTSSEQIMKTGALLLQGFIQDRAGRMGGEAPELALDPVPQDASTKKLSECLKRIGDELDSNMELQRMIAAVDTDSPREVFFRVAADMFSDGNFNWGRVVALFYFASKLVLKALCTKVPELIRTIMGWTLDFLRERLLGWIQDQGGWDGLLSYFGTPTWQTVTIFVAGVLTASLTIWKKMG

- EC50 (BAKΔC): 173 nM
- EC50 [1]: 283 nM
- EC50 [2]: 19.8 nM
Substance: FITC-BIM SAHB (fluoresceinated stabilized α-helix of BCL-2 domain modeled after BIM BH3) (peptide)

- IC50 (BFL-1/A1ΔC): 603 nM
Substance: N-terminally acetylated BIM SAHB (peptide; other documents disagree on this pair)

- IC50 (BAKΔC): 827 nM
- IC50 [1]: 314 nM
- IC50 (BCL-XLΔC): 572 nM
- IC50 [2]: 136 nM
Substance: N-terminally acetylated BIM SAHB (peptide)
